# Source: US20220348620A1
# Legend:
# Assay in all cases: anti-Flag pull-down from MFF1-transfected PC3 cells, LC-MS/MS; intensity over control, mean of two experiments
# RPN2 (human) = RPN2 (human) (UniProt P04844)
# SLC25A13 (human) = SLC25A13 (human) (UniProt Q9UJS0)
# COPA (human) = COPA (human) (UniProt P53621)
# HSPA8 (human) = HSPA8 (human) (UniProt P11142)
# DDB1 (human) = DDB1 (human) (UniProt Q16531)
# OPA1 (human) = OPA1 (human) (UniProt O60313)
# RPN1 (human) = RPN1 (human) (UniProt P04843)
# DDOST (human) = DDOST (human) (UniProt P39656)
# TFRC (human) = TFRC (human) (UniProt P02786)
# COPB1 (human) = COPB1 (human) (UniProt P53618)
# RPN1 (human), sequence (P04843 24-607 limits assumed): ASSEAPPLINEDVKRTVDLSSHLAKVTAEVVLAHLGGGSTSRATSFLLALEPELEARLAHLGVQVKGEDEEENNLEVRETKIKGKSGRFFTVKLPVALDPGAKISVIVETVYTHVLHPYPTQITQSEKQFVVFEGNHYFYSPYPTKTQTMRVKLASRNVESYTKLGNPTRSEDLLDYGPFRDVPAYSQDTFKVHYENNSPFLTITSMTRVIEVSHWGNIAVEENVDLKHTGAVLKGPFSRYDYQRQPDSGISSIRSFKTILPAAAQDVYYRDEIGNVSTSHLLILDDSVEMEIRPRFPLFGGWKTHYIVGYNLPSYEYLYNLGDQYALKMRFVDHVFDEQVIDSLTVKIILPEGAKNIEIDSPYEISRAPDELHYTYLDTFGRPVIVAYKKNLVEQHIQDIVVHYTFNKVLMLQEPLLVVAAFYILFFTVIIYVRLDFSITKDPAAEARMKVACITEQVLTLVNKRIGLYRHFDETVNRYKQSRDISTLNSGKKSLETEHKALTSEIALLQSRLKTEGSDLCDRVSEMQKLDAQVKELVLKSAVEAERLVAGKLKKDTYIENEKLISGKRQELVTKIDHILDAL
# DDOST (human), sequence (P39656 43-456 limits assumed): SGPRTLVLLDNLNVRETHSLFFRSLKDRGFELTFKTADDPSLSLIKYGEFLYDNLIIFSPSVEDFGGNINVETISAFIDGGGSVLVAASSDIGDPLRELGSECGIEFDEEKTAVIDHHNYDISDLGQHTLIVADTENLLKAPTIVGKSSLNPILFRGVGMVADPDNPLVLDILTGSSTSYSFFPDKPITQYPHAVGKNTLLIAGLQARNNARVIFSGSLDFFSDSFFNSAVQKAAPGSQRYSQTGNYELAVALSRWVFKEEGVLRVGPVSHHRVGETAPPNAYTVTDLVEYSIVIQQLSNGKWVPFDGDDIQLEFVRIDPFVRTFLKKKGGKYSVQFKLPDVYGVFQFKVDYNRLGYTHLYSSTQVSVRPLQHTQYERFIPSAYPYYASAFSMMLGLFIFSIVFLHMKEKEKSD
# RPN2 (human), sequence (P04844 23-631 limits assumed): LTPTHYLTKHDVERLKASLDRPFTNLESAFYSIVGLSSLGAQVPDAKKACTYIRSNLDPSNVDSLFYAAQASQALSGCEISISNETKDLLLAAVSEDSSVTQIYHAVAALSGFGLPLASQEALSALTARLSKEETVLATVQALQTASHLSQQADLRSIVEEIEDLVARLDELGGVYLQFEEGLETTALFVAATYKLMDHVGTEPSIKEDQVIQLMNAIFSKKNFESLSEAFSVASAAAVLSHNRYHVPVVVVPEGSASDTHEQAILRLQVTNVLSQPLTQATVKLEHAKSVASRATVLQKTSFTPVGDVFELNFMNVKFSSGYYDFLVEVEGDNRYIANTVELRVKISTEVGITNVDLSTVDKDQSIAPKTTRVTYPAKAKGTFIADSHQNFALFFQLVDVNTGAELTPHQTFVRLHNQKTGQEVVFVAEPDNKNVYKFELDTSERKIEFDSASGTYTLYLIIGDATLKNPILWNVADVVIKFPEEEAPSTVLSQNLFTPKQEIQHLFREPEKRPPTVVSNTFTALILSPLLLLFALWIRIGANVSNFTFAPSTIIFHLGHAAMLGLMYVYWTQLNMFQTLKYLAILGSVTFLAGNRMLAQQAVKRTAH
# OPA1 (human), sequence (O60313 88-960 limits assumed): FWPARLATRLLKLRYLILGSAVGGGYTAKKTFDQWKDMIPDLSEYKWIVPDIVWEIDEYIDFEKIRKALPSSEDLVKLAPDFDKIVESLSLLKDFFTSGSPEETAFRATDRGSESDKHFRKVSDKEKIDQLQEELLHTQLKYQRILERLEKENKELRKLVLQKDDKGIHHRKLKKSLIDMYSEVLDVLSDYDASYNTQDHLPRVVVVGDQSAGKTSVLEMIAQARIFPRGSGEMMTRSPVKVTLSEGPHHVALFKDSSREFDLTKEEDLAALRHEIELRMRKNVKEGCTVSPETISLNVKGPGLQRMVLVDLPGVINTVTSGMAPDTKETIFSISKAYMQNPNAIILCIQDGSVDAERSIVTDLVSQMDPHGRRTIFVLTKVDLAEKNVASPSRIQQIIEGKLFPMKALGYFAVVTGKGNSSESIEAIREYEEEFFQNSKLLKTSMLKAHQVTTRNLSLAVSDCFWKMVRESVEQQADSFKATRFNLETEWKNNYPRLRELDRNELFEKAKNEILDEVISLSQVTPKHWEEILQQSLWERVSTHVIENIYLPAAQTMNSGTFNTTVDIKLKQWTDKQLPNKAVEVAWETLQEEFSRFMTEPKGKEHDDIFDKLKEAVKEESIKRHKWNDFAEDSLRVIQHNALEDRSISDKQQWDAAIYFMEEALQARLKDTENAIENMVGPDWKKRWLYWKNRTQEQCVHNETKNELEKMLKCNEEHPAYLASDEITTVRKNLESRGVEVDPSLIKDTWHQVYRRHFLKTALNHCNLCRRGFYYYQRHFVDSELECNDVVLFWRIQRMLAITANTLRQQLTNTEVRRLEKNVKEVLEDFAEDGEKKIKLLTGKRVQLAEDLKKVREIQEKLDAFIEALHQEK
# TFRC (human), sequence (P02786 whole entry): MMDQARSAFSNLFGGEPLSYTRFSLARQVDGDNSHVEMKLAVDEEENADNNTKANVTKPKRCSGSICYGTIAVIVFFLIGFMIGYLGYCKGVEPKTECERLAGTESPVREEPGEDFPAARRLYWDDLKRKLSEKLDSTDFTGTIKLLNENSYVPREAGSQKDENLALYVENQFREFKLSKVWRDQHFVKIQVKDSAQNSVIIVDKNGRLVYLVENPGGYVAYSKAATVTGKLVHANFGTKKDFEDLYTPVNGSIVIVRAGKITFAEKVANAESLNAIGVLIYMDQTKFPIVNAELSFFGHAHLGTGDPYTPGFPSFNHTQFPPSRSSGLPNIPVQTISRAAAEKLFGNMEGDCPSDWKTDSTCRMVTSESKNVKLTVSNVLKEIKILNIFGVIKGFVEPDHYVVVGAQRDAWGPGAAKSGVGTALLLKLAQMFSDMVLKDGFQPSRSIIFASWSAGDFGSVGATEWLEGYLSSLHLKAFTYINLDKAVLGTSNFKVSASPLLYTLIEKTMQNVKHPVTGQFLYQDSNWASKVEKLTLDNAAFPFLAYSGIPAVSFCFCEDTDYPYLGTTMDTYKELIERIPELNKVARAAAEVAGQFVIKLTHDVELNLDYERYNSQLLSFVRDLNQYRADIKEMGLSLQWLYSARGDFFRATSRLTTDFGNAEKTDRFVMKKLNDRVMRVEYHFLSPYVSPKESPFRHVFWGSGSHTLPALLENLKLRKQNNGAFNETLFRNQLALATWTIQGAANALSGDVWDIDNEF
# SLC25A13 (human), sequence (Q9UJS0 2-675 limits assumed): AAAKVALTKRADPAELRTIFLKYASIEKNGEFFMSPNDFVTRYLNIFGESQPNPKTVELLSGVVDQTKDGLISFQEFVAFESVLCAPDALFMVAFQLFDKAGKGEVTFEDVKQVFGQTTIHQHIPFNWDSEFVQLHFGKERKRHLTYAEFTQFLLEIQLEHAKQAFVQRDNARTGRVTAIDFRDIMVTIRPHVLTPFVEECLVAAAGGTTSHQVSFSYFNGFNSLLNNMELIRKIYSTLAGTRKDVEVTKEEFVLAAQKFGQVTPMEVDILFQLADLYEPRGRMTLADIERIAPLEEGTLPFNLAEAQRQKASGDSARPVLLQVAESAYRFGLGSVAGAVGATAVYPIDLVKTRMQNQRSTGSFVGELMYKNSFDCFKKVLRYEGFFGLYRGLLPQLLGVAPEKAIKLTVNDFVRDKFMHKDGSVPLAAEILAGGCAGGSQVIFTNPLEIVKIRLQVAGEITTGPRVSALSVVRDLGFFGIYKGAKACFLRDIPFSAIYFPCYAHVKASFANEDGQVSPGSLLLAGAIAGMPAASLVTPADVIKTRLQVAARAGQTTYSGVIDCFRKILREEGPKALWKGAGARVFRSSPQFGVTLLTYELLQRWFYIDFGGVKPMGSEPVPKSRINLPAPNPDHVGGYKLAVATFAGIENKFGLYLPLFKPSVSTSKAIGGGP
# HSPA8 (human), sequence (P11142 2-646 limits assumed): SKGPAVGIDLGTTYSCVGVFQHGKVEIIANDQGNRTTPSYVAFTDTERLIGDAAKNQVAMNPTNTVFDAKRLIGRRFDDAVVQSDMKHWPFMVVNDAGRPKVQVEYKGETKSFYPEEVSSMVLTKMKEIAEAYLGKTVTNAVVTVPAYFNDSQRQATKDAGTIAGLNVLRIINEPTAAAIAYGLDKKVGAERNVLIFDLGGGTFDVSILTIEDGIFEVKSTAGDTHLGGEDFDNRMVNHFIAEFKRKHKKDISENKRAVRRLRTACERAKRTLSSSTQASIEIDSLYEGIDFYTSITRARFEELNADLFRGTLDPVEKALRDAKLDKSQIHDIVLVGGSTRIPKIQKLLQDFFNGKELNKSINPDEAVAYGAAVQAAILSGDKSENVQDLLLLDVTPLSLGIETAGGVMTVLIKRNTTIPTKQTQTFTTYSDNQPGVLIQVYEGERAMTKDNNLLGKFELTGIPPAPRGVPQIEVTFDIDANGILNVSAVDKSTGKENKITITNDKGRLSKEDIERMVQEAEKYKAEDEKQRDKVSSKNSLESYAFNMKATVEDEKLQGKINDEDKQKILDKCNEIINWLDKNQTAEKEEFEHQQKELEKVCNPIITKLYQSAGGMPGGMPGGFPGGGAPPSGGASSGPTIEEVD
substance,measurement,setting,value
Flag-MFF1 (from UniProt Q9GZY8 1-342),mean fold,RPN2 (human),12.1 fold
same,mean fold,SLC25A13 (human),15.1 fold
same,mean fold,COPA (human),19.3 fold
same,mean fold,HSPA8 (human),21.4 fold
same,mean fold,DDB1 (human),32.3 fold
same,mean fold,OPA1 (human),25.2 fold
same,mean fold,RPN1 (human),10.8 fold
same,mean fold,DDOST (human),17.1 fold
same,mean fold,TFRC (human),25.3 fold
same,mean fold,COPB1 (human),18.5 fold
